Measurements: the DeepSol protein solubility set

experiment: soluble on expression in E. coli; label from the status in PepcDB or PDB records

Row | Sequence | soluble on expression in E. coli
1 | MGSDKIHHHHHHMKEVKIGKDKISVALCTYNGEKFIREQLRSIVGQTILPWQIVVCDDQSTDRTMDIVREFADDYPSIRWMIIRNEVRLGVRRNFEKAIALAEGDYIAPSDQDDIWERNKLEILLHIMREKKVSLVHSNIRYVDVKGREMTERLDFPCSVPLATYLYGLNNVMGCTCLFCASLKDILFPFPIHYYYHDQWLAIMAYHNGGIYLCDHKLVRYRQHADNVVSAICGGGKREGEELGLSYFVGKAEDIYLLLHRRKQIKYSQKDWWRLAWLYVSNRLGLAWLKFKLL | not soluble
2 | MAHHHHHHMMNMFYRRDFPVSFRYVNDHSKFIGAGSGRGNRKRGMAPNNYTEYLRIMANEANGTGQDTSRVLFIDSEVNYRFTPVQTIVLDAYEPLTRRQQRRLVQQQYSNPFGDVSSRNARRYGAAAARARKMTVRHRAVVSAQHLQDAVDMQQKYTDFLIAEQEGVQLPPEMRNGVQDGHGGDLCHFSKRHPQRSAPSSSSPPHPQQGGSTRGRVSGPLSTPGPSSLADTESDKTPPDGNKDIKEEQQQLSMSCALAVNLEDYSLVALAEMIAEMSASETSVADYIKTEPLIEKVEVPFHGKANYLAPENCDNIDLLNWDEIQVLEKAHGTGVPEMVEETEDHKDFFR | not soluble
3 | MEIKPTPSPPEERTIYVANFSEEVDEELLEELFIQAGPVVKVILRDVRDSNAKFALVEFEDELSVLFAIELMNGVRLFNQELQVKPRNGTNQEELYKRKKGEIEERVRSVAAPDRDGRRDSYRDDRNRNRNGNNRDSWQQQQPPRHHRQYDPLPPPPPPPLMGGSGGHWRSGGERGPPQYSTPQMLPHQHFVNQMMQQQINRSAPPYNGRHQNSTPHRHHDRHGYDRSSSRHHRNDDRRRSAHFLDIRKFQAPPTSWAFGNFQCFFWNLFSKITYLQEVGGA | not soluble
4 | MALLHGGQLQQVAKQYNIPPSDWIDVSTGIAPISYPIPIIPLSVWQQLPQQNPDLIAAAQQYYQCSQLMITNGSQAIIKALPALYRQKNAESQDVYLPERGYKEHAHAWKNAGYNLHFYQEFLPEMSEILPNSVLVIINPNNPTGQFFNGQVIAQYQERLKLINGLLVLDEAFIDVVPGNQSYYNQLENSHSLVLRSFGKFFGLAGIRIGFLVANGYWCGAFKELLGPWQINGPAQLIAQHALQDTSWQTRQKDTLTRLRIAQEHMLRQAFPQIILREINGCNLFLTLSFHQQDTAKKLYHLLCQQGVYCRLADEQDTLRFGITTEELLERLTLACRQAYQQLT | not soluble
5 | MVVYGADVICASCVNAPTSKDIYDWLQPLLKRKYPNISFKYTYIDITKDNDNLTDHDLQFIERIEQDELFYPLITMNDEYVADGYIQTKQITRFIDQKLVNE | soluble
6 | MDMISAFDIFKIGIGPSSSHTVGPMNAGKSFIDRLESSGLLTATSHIVVDLYGSLSLTGKGHATDVAIIMGLAGNSPQDVVIDEIPAFIELVTRSGRLPVTSGAHIVDFPVAKNIIFHPEMLPRHENGMRITAWKGQEELLSKTYYSVGGGFIVEEEHFGLSYDVETPVPYDFHSAGELLKMCDYNGLSISGLMMHNELALRSKAEIDAGFARIWQVMHDGIERGMNTEGVLPGPLNVPRRAVALRRQLVSSDNISNDPMNVIDWINMYALAVSEENAAGGRVVTAPTNGACGIIPAVLAYYDKFRRPVNERSIARYFLAAGAIGALYKMNASISGAEVGCQGEIGVACSMAAAGLTELLGGSPAQVCNAAEIAMEHNLGLTCDPVAGQVQIPCIERNAINAVKAVNAARMAMRRTSAPRVSLDKVIETMYETGKDMNDKYRETSRGGLAIKVVCG | soluble
7 | FPDGTLGMDAAVQEDHDNGTQLDSLTLASINTDFAFSLYKELVLKNPDTNIVFSPLSISAALALVSLGAKGNTLEEILEGLKFNLTETSEADIHQGFGHLLQRLNQPKDQVQISTGSALFIEKRQQILTEFQEKAKTLYQAEAFTADFQQPRQAKKLINDYVRKQTQGMIKELVSDLDKRTLMVLVNYIYFKAKWKVPFDPLDTFKSEFYCGKRRPVIVPMMSMEDLTTPYFRDEELSCTVVELKYTGNASALFILPDQGRMQQVEASLQPETLRKWKNSLKPRMIDELHLPKFSISTDYSLEDVLSKLGIREVFSTQADLSAITGTKDLRVSQVVHKAVLDVAETGTEAAAATGVKFVPMSAKLYPLTVYFNRPFLIMIFDTETEIAPFIAKIANPK | soluble
8 | MANQIYLFSLICLSVLLCQSYTVSSFQKSLDLAKPCKRFVLHLHDIAYDGDNAANATSAAIVNPLGLGDFSFGKFVIMDDPVTMDQNYLSKPVARVQGFFCYHGKATYDAWIAWTVVFNSTQHKGAFTIMGENPFMEPTRDLPIVGGTGDFIMTRGIATLTTDHIDGSKYFRVKLDIKLYECYH | soluble
9 | MSTAQAVKIGIAEMEVVIAPNVIRTCGLGSCVGVVIYDAGKAVAGMAHVMLPHSSMARGGVINAAKYADTAVEALVQLVIAAGGRKGMLKAKLAGGAQMFSFSTVGGDMMRIGARNVEEVKKQLERLHIPVVAEDVGGHSGRTIEFNPQTGVLSIRTAAQEIKEI | not soluble
10 | DYNGQAKCMLEKVGNWNFDIFLFDRLTNGNSLVSLTFHLFSLHGLIEYFHLDMMKLRRFLVMIQEDYHSQNPYHNAVHAADVTQAMHCYLKEPKLANSVTPWDILLSLIAAATHDLDHPGVNQPFLIKTNHYLATLYKNTSVLENHHWRSAVGLLRESGLFSHLPLESRQQMETQIGALILATDISRQNEYLSLFRSHLDRGDLCLEDTRHRHLVLQMALKCADICNPCRTWELSKQWSEKVTEEFFHQGDIEKKYHLGVSPLCDRHTESIANIQIGFMTYLVEPLFTEWARFSNTRLSQTMLGHVGLNKASWKGLQR | soluble
11 | MSDSQINSRTTIDEYLSRADWRVNANANQDYSLGGMILNAAGKVTANYWLDQVFSPAASAAHREGSIHIHDLDMLSGYCAGWSLRQLLEEGFGGVPGTISSRPPKHFSSACGQIVNFLGTLQNEWAGAQAFSSFDTYMAPFVRLDNLSYDEIVQDMQEFIFNLNVPSRWGTQTPFTNLTFDWTCPADLKDSVPFIGEEPVDFTYGELQEEMDLINRAFIQVMSAGDADGRPFTFPIPTYNITKDFDWDSPNTEALFTMTAKYGLPYFQNFINSDLDPGMIRSMCCRLQLDLRELLKRGNGLFGSAELTGSIGVVTLNCARLGYLYAGDEQALLGAVDELIELGIDTLERRRDFVATHMRQGLYPYSARWLPSLDNHFSTIGVNGCNEMIRNFTHDAYNLTDPQGHAQVARLLDHINARLVQAQERTGHLFNLEATPAEGTTYRLAKEDLKRYPDMLHAGTPEEPYYTNSSQLPVSHTPDPFEALALQEDLQSKYTGGTVLHLYMGAAMSDGKACAALVRRALTNFHLPYITITPTFSICPDHGYISGEHPECPQCGATTEMWTRVMGYFRPVQSFNTGKKGEFHERTYFAEALI | not soluble
12 | SLGKKIETHLEDMVAQANAQLKLTAPESNLEVSYQNYHRGVFSSQLQLLVKPIAGKENPWIKSGQSVIFNESVDHGPFPLAQLKKLNLIPSMASIQTTLVNNEVSKPLFDMAKGETPFEINSRIGYSGDSSSDISLKPLNYEQKDEKVAFSGGEFQLNADRDGKAISLSGEAQSGRIDAVNEYNQKVQLTFNNLKTDGSSTLASFGERVGNQKLSLEKMTISVEGKELALLEGMEISGKSDLVNDGKTINSQLDYSLNSLKVQNQDLGSGKLTLKVGQIDGEAWHQFSQQYNAQTQALLAQPEIANNPELYQEKVTEAFFSALPLMLKGDPVITIAPLSWKNSQGESALNLSLFLKDPATTKEAPQTLAQEVDRSVKSLDAKLTIPVDMATEFMTQVAKLEGYQEDQAKKLAKQQVEGASAMGQMFRLTTLQDNTITTSLQYANGQITLNGQKMSLEDFVGMFAMPALNVPAVPAIPQQ | soluble
13 | IGQVKYNIGGSLSDAWSKVLELANNENVPNEGKNENRLIGMPRQALYVYQTDGIFQSADEVAAYYEKYYWNADHSGPKANNILPAPQEASTNTLRPGARKVVDLNGDGAITKDDLYYAGDMAPRLTFGFKLGLEWKGIDFSAFFQGVGKQVLLRGGYLAAPWTTNYVLQNKNFAGKMWSENNRDAEYTIASRDQNFNKWNYNNKDVSVQNNRYVRLKSLVVGYSLPQKWISKAGLSKLRVYFSGDDLWEWTKVKDGYDPEYGENSNNTFPFSRLLTFGVDVTF | not soluble
14 | MARLNVKPTRMELSNLKNRLKTATRGHKLLKDKRDELMRRFVDLIRENNELRQTLEKELAANMKEFVLAKASENSLMVEELFAVPVHEVTLWIDIENIMSVNVPKFHVQSNTAREQEQGEFAYSYLSSNSEMDNTIQKTKELLEKLLRLAEVEKTCQLMADDIEKTRRRVNGLEYSIIPQLEETIHYIELKLEEAERASLVRIMKITSLEHHHHHH | not soluble
15 | MKHFDFSLRIWPISLWFVKHSGVKNPMNEVIIREITSEDKEMFLCAMQSSQALHHPWVKAPIIPEEFDEYFSRYQKPNQKSYLLLSDNNLAGVFNISEIVRGYFQNAYLGFYVVAAYAGKGYMSTGLKLILTKVFKDMGLHRLEANIQPENTRSIWLVKKNGFRYEGFSPRYLRVNDVWQGHEHWAMTYEDFIKDNNEVLEKDHIDIVAYNTEWPLLAKAEMVKLRASFPANSVIDIQHVGSTAIPGMASKPIIDIQIAVRSLEEMKIIAVPILQKLDYEYWEDNPDPERMFFVKGMPPYGNGRTHHVHIVEASSRHWKGKTFFRDYLLSHPEAAEKYQQLKIKLAQEHKYDREQYTDAKSEFINQILKLAQN | not soluble
16 | MTIAYEHPNALTYLKSMKENIIRFANKKSLYTQHDEYIKNVFMDERVNLKYHCESIVSYIAEAFIHYSVWDHSHAYYPGRPSQQTARTDALEGTSRTLPTLAAWLHANGRSNTIITGLNQQPILVPEILRKAFLAGTNPQHKGYWGTLHHCDQRVCEGADLALALWMSKEWVWDCFSIDEKCQIITWFKQVNQCETVDNNWHLFVLTVQIVLKALTGEDEVQYDKYERVKEFYVGDGWFRDGAKGNYDYYNAWAFHYSLYWFTQIDVDFDSTFINNALSDFVGNYRYFFGKEGFPFFGRSACYRLAAAAPLLAAVDLQSDKITIGEAKRAFHCNLKYFISNGALKAGLPTQGLFDEDVRLVDNYSGPASSLWSLRALNIALFCGEKINLWQAEEAPLAIEQGNFELDISAINMKILGVYETQEVIAIFKNEYTQDQSPLSRRLLAPSLEHHHHHH | soluble
17 | MGHHHHHHSHMTLQALSEANRRLWMEAMDGKEPIYHSPITKQQEMELNEVGFKFVRKCINIIETKGIKTEGLYRTVGSNIQVQKLLNAFFDPKCPGDVDFHNSDWDIKTITSSLKFYLRNLSEPVMTYRLHKELVSAAKSDNLDYRLGAIHSLVYKLPEKNREMLELLIRHLVNVCEHSKENLMTPSNMGVIFGPTLMRAQEDTVAAMMNIKFQNIVVEILIEHFGKIYLGPPEESAAPPVPPPRVTARRHKP | not soluble
18 | MANSLRNVNDYDPFKYRPSYFDLEAPTESFALGKFVDAIEVKQMALDAFSESSMVSIATSQLPKTAYTATSFIESEYYSFPYLFNDQKYYWDYFDYKIPAADFAVLELELDLNNQQDQQIKDHFIDPAIKAYKQLGDSTGLFATKPLTEYQNDTHYLLGYPVVPTDHTQLWECKQGAERFSYGYFYSNMARLTKNLRQGDPNAGSKTHIEYSNELLDKDSMDQGIVR | not soluble
19 | MNRIFCALMRADAARFREVVFPCALLQNHPHQFPHVLARLEFFAPPDQRNCLLLPRVLVKRSLAAKEPSKVNFLSVNLRKELHEEAKSSKKTNLK | not soluble
20 | MGNASENFDIEDLMSYGDDLINLLNVKNGFDIISQSSEQFKALNFACHEDFNQIQGSIEDCKTKLYACKKKTEEAYSDIAAEDEIERLQKELDEEMEREFKLKDELR | soluble
21 | MQELINEYRGALQEVNEVKANLQTKIDAKKRPPQAAGQKRTIQEVPEKAIMSKLNSIIRSLEYSIEWMELGHEPAPRRAIHRRSGLQREVCVTDIETMRQWFVYEHGIAYDFEDNEPKISEWDKIRMEDAMSTMSTQEKKVFLLKHEKNLSYSQISDEMEISVRSVRSYLHRGEEKIQNQIDGSLFCMAI | not soluble
